Data on 7 molecules can be found in patent publication US20250270319A1 (Alector, published 2025).

Numbering of substitutions follows the chain as printed. Like-named read-outs stand apart in the source and are kept apart here.

For orientation: Kd means the constant that tells how readily two partners part at equilibrium. In general, koff refers to a measure of how fast the partners let go of each other. One may read the kon as a measure of how fast the partners come together. For orientation: EC50 means the midpoint of the concentration-response curve.

The target of test [1] is T1, recombinant human CD33 protein (Sino Biologicals) (human, UniProt P20138 18-259).
T1 construct: Bought protein; also called recombinant CD33
T1 sequence (P20138 18-259 limits assumed): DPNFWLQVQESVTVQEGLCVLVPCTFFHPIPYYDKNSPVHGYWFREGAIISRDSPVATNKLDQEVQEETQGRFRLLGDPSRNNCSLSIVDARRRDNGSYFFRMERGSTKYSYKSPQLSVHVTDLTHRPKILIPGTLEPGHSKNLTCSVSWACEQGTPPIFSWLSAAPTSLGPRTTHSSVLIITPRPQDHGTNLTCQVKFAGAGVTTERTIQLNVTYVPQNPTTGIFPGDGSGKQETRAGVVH
In words: BLI (ForteBio), antibody on anti-human Fc sensor, CD33 10 nM. As to the method: (§1) Affinity parameters of the antibody variants for human CD33 were measured by BioLayer Interferometry in a ForteBio assay according to standard techniques (Estep et al. (2013) MAbs 5(2): 270-8) and were compared to those of the parental antibody (antibody 6C7H8) and the parental humanized antibody (antibody 6C71H5). Briefly, the antibodies were captured on anti-human Fc Biosensors (Pall ForteBio). Recombinant human CD33 (10 nM, Sino Biologicals) was then bound to the captured anti-CD33 surface (200 s association time, 1200 s dissociation time). Local fitting was used to extract association and dissociation rate constants (kₐ and kd, respectively) for each antibody. Apparent affinity constants (KD) were calculated from the ratio kd/kₐ.

Test [2] has as its target T2, human CD33 on primary human dendritic cells (human, UniProt P20138 18-364). Put plainly: cell-based or functional assay.
In test [3] the target is T2, human CD33 on primary human dendritic …. In words: cell-based or functional assay. This is another data set of the same source.
In test [4] the target is T3, recombinant cynomolgus CD33 protein (NovoProtein) (cynomolgus).
T3 construct: Bought protein; also called cyno CD33
T3 sequence (chain, as listed by the source limits assumed): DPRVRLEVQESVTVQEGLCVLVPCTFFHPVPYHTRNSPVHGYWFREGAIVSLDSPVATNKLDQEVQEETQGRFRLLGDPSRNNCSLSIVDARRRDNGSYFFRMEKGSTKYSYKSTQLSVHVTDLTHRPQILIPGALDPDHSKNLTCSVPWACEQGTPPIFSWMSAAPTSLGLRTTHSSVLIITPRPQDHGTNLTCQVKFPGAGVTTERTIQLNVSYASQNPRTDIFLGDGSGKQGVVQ
Put plainly: ELISA, plate coated with recombinant CD33.

The target of test [5] is T1, recombinant human CD33 protein (Sino …). In words: ELISA, plate coated with recombinant CD33. On the technique in general: ELISA stands for enzyme-linked immunosorbent assay.
For test [6], the target named is T2, human CD33 on primary human dendritic …. Put plainly: cell-based or functional assay. This is another data set of the same source.
Test [7] shares this target. In words: flow cytometry, primary human dendritic cells, 2 ug/mL.
Test [8] has the same target. In words: cell-based or functional assay. The source holds these as a separate data set.
For test [9], the target named is T3, recombinant cynomolgus CD33 protein …. In words: BLI (ForteBio), antibody on anti-human Fc sensor. How it is done:
as §1
(§2) The affinity parameters of anti-CD33 antibody 6C7H54 for human CD33 and cynomolgus CD33 were measured by BioLayer Interferometry in a ForteBio assay, according to the method described above.
(In general: In BLI a coated tip is dipped into the sample, and binding shifts an interference pattern.)

Test [10] has as its target T1, recombinant human CD33 protein (Sino …). In words: BLI (ForteBio), antibody on anti-human Fc sensor. How it is done:
as §1, §2

The target in test [11] is T3, recombinant cynomolgus CD33 protein …. In words: BLI (ForteBio). How it is done:
as §1, §2

Test [12] addresses T1, recombinant human CD33 protein (Sino …). Put plainly: ELISA on recombinant CD33, relative binding, antibody concentration not given.
For test [13], the target named is T2, human CD33 on primary human dendritic …. Put plainly: flow cytometry on primary human dendritic cells, antibody at 2 ug/mL, fluorescent anti-human IgG secondary. How it is done: The 7 humanized anti-CD33 antibodies of 6C7 were evaluated for binding to primary dendritic cells by flow cytometry, and binding was compared to that of an anti-CD33 6C7 chimeric antibody that contained the variable heavy chain sequence and the variable light chain sequence of anti-CD33 antibody 6C7. Monocytes were isolated from blood from healthy human donors using the RosetteSep™ monocyte isolation antibody cocktail (StemCell Technologies). The isolated monocytes were differentiated into dendritic cells with 100 ng/mL GM-CSF and 100 ng/mL IL-4 (Peprotech). Dendritic cells were incubated with dilutions of the anti-CD33 antibodies for 30 minutes on ice in the dark, followed by a 30-minute incubation with a fluorescently-conjugated anti-human IgG secondary antibody. Cells were washed twice in FACS buffer (PBS+2% FBS, 2 mM EDTA), and flow cytometry was performed on a BD FACS Canto. Data were analyzed using FlowJo software (Ashland, OR).
The antibody variants were evaluated for binding to primary human dendritic cells, according to the method described in Example 1, at an antibody concentration of 2 μg/mL.

T2 sequence (P20138 18-364): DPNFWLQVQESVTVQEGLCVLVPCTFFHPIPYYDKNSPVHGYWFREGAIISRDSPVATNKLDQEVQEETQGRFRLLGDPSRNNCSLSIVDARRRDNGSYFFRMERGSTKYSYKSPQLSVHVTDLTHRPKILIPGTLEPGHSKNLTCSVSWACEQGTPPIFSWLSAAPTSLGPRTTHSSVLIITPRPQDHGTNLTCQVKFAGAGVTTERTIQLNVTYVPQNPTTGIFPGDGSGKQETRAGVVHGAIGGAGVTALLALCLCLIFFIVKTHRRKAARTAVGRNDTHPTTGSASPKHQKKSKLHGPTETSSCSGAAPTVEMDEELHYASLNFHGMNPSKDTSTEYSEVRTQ

B1: anti-CD33 antibody 6C7H5 (antibody, V domains shown)
VH: EVQLVESGGGLVQPGGSLRLSCAGSGFTFSNYCMNWVRQAPGKGLEWVAEIRLKSNNYVTNYAASVKGRFTISRDDSKNSVYLQMNSLKTEDTGVYYCTRDGYYVPFAYWGQGTLVTVSS
VL: QLVLTQSPSASASLGASVKLTCTLSSQHSTYTIEWYQQQPEKGPRYLMELKKDGSHSTGDGIPDRFSGSSSGAERYLTISSLQSEDEADYYCGVGDTIKEQFVYVFGGGTKLTVL
notes: Humanized 6C7; VH/VL only; also called parental humanized antibody
With B1, in test [1], the Kd was 0.436 nM, the koff came out at 0.00012 s⁻¹ and the kon worked out at 275000 M⁻¹ s⁻¹. The “Receptor downregulation, (EC50) (pM)” value in test [2] was 42.4 pM. Moreover, in test [3], the “Maximal reduction in CD33 (% remaining)” value was 21 % remaining and the “Receptor downregulation, (EC50) (pM)” value turned out to be 42.4 pM. Besides, in test [4], the EC50 came out at 3.84 nM, the “Relative maximal binding (cyno/human)” value was 0.5 and the “Relative potency (human/cyno)” value was determined as 0.04. The EC50 in test [5] stood at 0.16 nM. In addition, the “Receptor downregulation, (EC50) (pM)” value in test [6] worked out at 42.4 pM.

B2: anti-CD33 antibody 6C7H13 (antibody, V domains shown)
VH: B1 VH with C33F, D101A
VL: B1 VL with D53E
notes: VH/VL only
In the case of B2, in test [1], the Kd turned out to be 3.88 nM, the koff is 0.0031 s⁻¹ and the on-rate constant (kon) turned out to be 801000 M⁻¹ s⁻¹. Also, in test [3], the “Fold increase in potency compared to 6C7H5” value (“Fold increase in potency” below) was found to be 0.01 fold and the “Receptor downregulation, (EC50) (pM)” value came to 3640 pM. In test [7], the “binding relative to the parental antibodies” value was below 60%.

B3: anti-CD33 antibody 6C7H54 (antibody, IgG1, V domains shown)
VH: B1 VH with C33E, D101A
VL: B1 VL with V3M, E41G, D53E, D96H
notes: VH/VL only; also called 6C7H54 IgG1; 6C754
For B3, in test [2], the “Fold increase in potency” value amounted to 1.2 fold and the “Receptor downregulation, (EC50) (pM)” value came out at 30.2 pM. In [8], the “Maximal downregulation (% CD33 remaining)” value is 26.1 % CD33 remaining and the “Receptor downregulation, (pM, EC50)” value was 30.2 pM. In addition, in test [4], the EC50 was 0.57 nM, the “Relative maximal binding (cyno/human)” value was determined as 0.73 and the “Relative potency (human/cyno)” value is 0.49. Also, the EC50 in test [5] was determined as 0.28 nM. Moreover, in [9], the Kd was 0.178 nM, the koff is 0.000105 s⁻¹ and the kon was 589000 M⁻¹ s⁻¹. In [10], the dissociation constant (Kd) came out at 0.061 nM, the koff was found to be 3.32e-05 s⁻¹ and the kon is 545000 M⁻¹ s⁻¹. Besides, the “fold difference of binding affinity, cynomolgus CD33 against human CD33” value in test [11] is at most 3 fold.

B4: anti-CD33 antibody 6C7H11 (antibody, V domains shown)
VH: B1 VH with G24A, N31E, C33A, A49G, D101A
VL: B1 VL with D53G
notes: VH/VL only
B4: the binding result in [12] and in test [13] was “binds” each time.

B5: anti-CD33 antibody 6C7H22 (antibody, V domains shown)
VH: B1 VH with C33T, D101A
VL: B1 VL with D53E
notes: VH/VL only
As to B5, in [1], the Kd came out at 0.467 nM, the off-rate (koff) was 0.00113 s⁻¹ and the on-rate constant (kon) was 2.41e+06 M⁻¹ s⁻¹. In [3], the “Fold increase in potency” value amounted to 0.03 fold and the “Receptor downregulation, (EC50) (pM)” value came to 1230 pM. The “binding relative to the parental antibodies” value in test [7] was below 60%.

B6: anti-CD33 antibody 6C7H27 (antibody, V domains shown)
VH: B1 VH with N31D, C33T, D101A
VL: B1 VL with D53E
notes: VH/VL only
As to B6, in test [1], the dissociation constant Kd was 2.73 nM, the koff was determined as 0.00365 s⁻¹ and the kon was 1.34e+06 M⁻¹ s⁻¹. Besides, in [3], the “Fold increase in potency” value came out at 0.03 fold and the “Receptor downregulation, (EC50) (pM)” value is 1520 pM. Moreover, the “binding relative to the parental antibodies” value in test [7] is below 60%.

B7: anti-CD33 antibody 6C7H8 (antibody, IgG1, V domains shown)
VH: B1 VH with D101A
VL: B1 VL with D53E
notes: VH/VL only; also called 6C7H8 IgG1; parental antibody
Consider B7, for which, in test [1], the Kd was 0.722 nM, the koff is 0.000413 s⁻¹ and the kon stood at 572000 M⁻¹ s⁻¹. In test [3], the “Fold increase in potency” value was determined as 0.5 fold; the “Maximal reduction in CD33 (% remaining)” value was determined as 21.5 % remaining; the “Receptor downregulation, (EC50) (pM)” value is 77.9 pM. Besides, in [8], the “Maximal downregulation (% CD33 remaining)” value turned out to be 21.5 % CD33 remaining and the “Receptor downregulation, (pM, EC50)” value came out at 77.9 pM. For the same molecule, in [4], the “Relative maximal binding (cyno/human)” value was 0.06. Besides, in test [5], the EC50 stood at 0.21 nM. Also, the “Receptor downregulation, (EC50) (pM)” value in [6] was 77.9 pM.
